This assay has as its target T1, MMRN2 (endogenous, HUVEC) (human, UniProt Q9H8L6 23-949).
T1 construct: Endogenous protein in HUVEC lysates (co-immunoprecipitation); also called multimerin-2
T1 sequence (looked up): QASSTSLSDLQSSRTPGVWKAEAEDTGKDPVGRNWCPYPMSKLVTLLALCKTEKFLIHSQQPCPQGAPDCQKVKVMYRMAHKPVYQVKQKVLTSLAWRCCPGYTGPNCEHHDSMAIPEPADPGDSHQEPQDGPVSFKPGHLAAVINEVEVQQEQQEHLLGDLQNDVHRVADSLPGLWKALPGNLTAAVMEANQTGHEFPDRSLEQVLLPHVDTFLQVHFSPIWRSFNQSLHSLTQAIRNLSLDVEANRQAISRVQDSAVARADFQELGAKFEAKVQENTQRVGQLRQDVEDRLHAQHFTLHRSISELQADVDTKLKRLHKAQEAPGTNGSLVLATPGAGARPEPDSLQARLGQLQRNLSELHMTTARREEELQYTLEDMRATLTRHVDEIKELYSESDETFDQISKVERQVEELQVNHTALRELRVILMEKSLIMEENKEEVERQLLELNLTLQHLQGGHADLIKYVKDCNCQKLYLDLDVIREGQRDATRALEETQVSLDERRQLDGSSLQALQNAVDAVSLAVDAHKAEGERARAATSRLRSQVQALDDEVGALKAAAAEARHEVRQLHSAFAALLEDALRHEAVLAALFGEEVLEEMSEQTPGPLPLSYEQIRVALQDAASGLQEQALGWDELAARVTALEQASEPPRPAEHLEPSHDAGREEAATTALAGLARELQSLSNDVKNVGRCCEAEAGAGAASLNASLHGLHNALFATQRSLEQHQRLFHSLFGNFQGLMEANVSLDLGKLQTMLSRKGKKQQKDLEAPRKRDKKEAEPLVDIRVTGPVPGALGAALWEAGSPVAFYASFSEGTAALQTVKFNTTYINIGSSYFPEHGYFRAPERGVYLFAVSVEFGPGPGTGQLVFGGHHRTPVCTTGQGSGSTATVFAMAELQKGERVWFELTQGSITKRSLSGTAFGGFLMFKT
In words: flow cytometry on HUVEC. The procedure: FIG. 3. A distinct region of MMRN2 binds CLEC14A in the C-type lectin domain. (A) CLEC14A-ECD-Fc was used to pull down MMRN2^FL from HEK293T transfected lysates. hCLEC14A-ECD-Fc was pre-incubated with either PBS, mouse control IgG, or C1-5. […] (B) Flow cytometry analysis of CLEC14A-ECD-Fc binding to HUVEC surface. CLEC14A-ECD-Fc was pre-incubated with same conditions as in pull downs. […] Mann-Whitney test *p<0.05 n=4 error bars represent standard error mean (SEM). (C) HEK293T transfected with CLEC14A domain deletions were lysed and far western blotted with MMRN2^FL under non-reduced conditions. Upon detection of the MMRN2^FL His tag, MMRN2 binding is observed in all mutants except those lacking the CTLD or sushi domains. CLEC14A blot was included to show expression of each mutant protein. (D) Flow cytometry analysis of HEK293T transfected with chimera 1 CLEC14A^{THBD(CTLD)} or chimera 2 CLEC14A^{THBD(sushi)}. […]
HUVEC or transfected HEK293T cells were detached from tissue culture plates using cell dissociation buffer or scraped and 5×10⁵ cells were stained with 20 ug/mL of antibody of interest or 20 μg/mL of recombinant protein. […] Samples were analysed on a FACSCalibur machine (BD Biosciences). […] Isotype control staining or human Fc alone was used as background fluorescence and this was subtracted from the geometric mean fluorescence intensity of each sample. […]
A general note: In flow cytometry, cells or beads pass a laser one at a time.

B1: CLEC14A-ECD-Fc (human CLEC14A extracellular domain fused to an Fc tag) (Fc fusion)
chain: EHPTADRAGCSASGACYSLHHATMKRQAAEEACILRGGALSTVRAGAELRAVLALLRAGPGPGGGSKDLLFWVALERRRSHCTLENEPLRGFSWLSSDPGGLESDTLQWVEEPQRSCTARRCAVLQATGGVEPAGWKEMRCHLRANGYLCKYQFEVLCPAPRPGAASNLSYRAPFQLHSAALDFSPPGTEVSALCRGQLPISVTCIADEIGARWDKLSGDVLCPCPGRYLRAGKCAELPNCLDDLGGFACECATGFELGKDGRSCVTSGEGQPTLGGTGVPTRRPPATATSPVPQRTWPIRVDEKLGETPLVPEQDNSVTSIPEIPRWGSQSTMSTLQMSLQAESKATITPSGSVISKFNSTTSSATPQAFDSSS
notes: Expressed in HEK293T cells; also called hCLEC14A-ECD-Fc; C14A-Fc; not shown: human IgG Fc tag
As to B1, the binding result is given as “binds”.

The values above are taken from patent US20190185532A1 (UNIVERSITY OF BIRMINGHAM, published 2019).
